Source: patent US20230210962A1, “CONDITIONING REGIMEN FOR TRANSPLANT” (Hansa Biopharma AB, priority 2020, published 2023)

Tests used:
[1] = biological target: Rabbit anti-thymocyte globulin (rATG) (rabbit); test: cell-based or functional assay; conditions: scale: of 11 subjects with intact rATG remaining
[2] = test system: B6.CD45.2 donor bone marrow cells; test: Short-term survival of donor BMC in sensitized recipients; type: in vivo, NOD mice; conditions: T cell-depleted NOD, enzyme 4 h prior to BMT, four hours post-BMT
Excerpt: FIG. 2. EndoS-imlifidase reduces DSA-mediated killing of donor BMC in sensitized recipients. (A-C) Naive NOD mice were immunized with FVB splenocytes four weeks prior to the administration of EndoS-imlifidase. Sera were harvested prior to immunization, prior to and four hours after enzyme treatment. Representative histograms on the left are for DSA-IgG Fc (panel A), DSA-IgG1 Fc (panel B), DSA-IgG3 Fc (panel C) and DSA-IgG3 heavy chain (panel D) with sera at a 1:25 dilution. Mean fluorescence intensity (MFI) of DSA in the titrated sera is shown on the right. Mean±SEM are shown. Ratio paired t test was used to compare MFI of DSA before and after enzyme treatment at each serum dilution with *p<0.05, **p<0.01. (D) Schematic of the experiment shown in E-F. Naive NOD mice were immunized with B6.CD45.1 splenocytes four weeks prior to injection of T cell depleting mAbs. […] Splenocytes and bone marrow cells were analysed for the expression of MHC-I H-2K^b and CD45.2. […]
To determine the short-term survival of donor BMC in sensitized recipients, NOD mice that had been sensitized to B6.CD45.1 splenocytes were T cell-depleted (anti-CD4, 0.25 mg, anti-CD8, 0.25 mg, anti-CD90 0.3 mg, i.p.) two days prior to BMT and i.v. injected with EndoS and imlifidase 4 hours prior to BMT (80×10^6 B6.CD45.2 BMC via i.v. injection). Splenocytes and BMC were analyzed at 4 hours post BMC injection.

[3] = Imlifidase serum concentration in healthy subjects; type: in vivo, human; conditions: 0.25 mg/kg imlifidase, 96 hours
Method: (§1) FIG. 5. Mean imlifidase concentration vs. nominal time from dosing (N=15). Data BLQ are included in mean calculation as BLQ/2. SD indicated with bars. FIG. 6. In vitro cleavage of rATG by imlifidase over time. Columns indicate number of subjects with visible intact rATG on Western blot post-imlifidase (N=11).
(§2) The cleavage pattern of rATG was investigated with sera from healthy subjects (n=11) treated with 0.25 mg/kg imlifidase (EudraCT number: 2019-002770-31). Serum samples were incubated with a fixed, clinically relevant, concentration of 50 µg/mL rATG (commonly observed after a dose of 1.5 mg/kg), for 2 hours at 37° C. Serum samples were collected pre-imlifidase through 14 days post-imlifidase and were analyzed using SDS-PAGE and Western blot, developed with a goat anti-rabbit IgG, F(ab′)2 specific antibody to evaluate the cleavage of rATG. Imlifidase concentration was analyzed using a validated electroluminescence immunoassay based on MSD technology.

rATG = test: In vitro cleavage of rATG by imlifidase in post-dose sera (SDS-PAGE and Western blot); type: biochemical, rabbit; conditions: sera 96 hours post-imlifidase, 50 µg/mL rATG, 2 hours at 37° C
Method: as §1, §2

plasma IgG-pool = conditions: humans, cited from earlier work
[4] = test system: anti-MHC-I H-2K^b mAb (mouse IgG2b) mediated killing of donor BMC; test: In vivo EndoS mediated monoclonal DSA inhibition assay (NOD recipients); parameters: species or system NOD mice
Method: (§3) FIG. 1. EndoS inhibits monoclonal DSA mediated killing of donor bone marrow cells. Naive NOD (panel A-B) or B6.H-2^g7 (panel C-D) were given 30 µg EndoS and/or anti-H-2K^b mAb (10 µg or 100 µg) intravenously four hours prior to the infusion of a mixture of CFSE labeled NOD/CTV labeled B6 bone marrow cells (BMC; panel A-B) or CFSE labeled B6.H-2^g7/CTV labeled NOD.H-2^b BMC (panel C-D). Shown are experiment protocols for NOD (panel A) and B6.H-2^g7 (panel C). Shown are the ratios of dye labeled B6 to NOD cells (panel B) or NOD.H-2^b to B6.H-2^g7 cells (panel D) in the blood (left panels) collected one to three hours after bone marrow transplant (BMT), in host spleens (middle panels) and bone marrow (BM, right panels) collected at four hours after BMT. Mean±SEM are shown. Data were pooled from five (panel B) and four (panel D) independent experiments. Mann-Whitney U test (middle and right panels) was used for the comparisons shown; *p<0.05 and **p<0.01.
NOD or B6.H-2^g7 mice were i.v. injected with vehicle, anti-MHC-I H-2K^b (10 µg) alone, or a mixture of EndoS (30 µg) and anti-MHC-I H-2K^b (10 µg or 100 µg) as a pretreatment. EndoS and anti-H-2K^b were mixed right before injection. Four hours after this pretreatment, five million cells of a 1:1 mixture of carboxyfluorescein succinimidyl ester (CFSE) labeled NOD and cell trace violet dye (CTV) labeled B6 bone marrow cells (BMC) were i.v. injected into the pre-treated NOD mice. Similarly, a 1:1 mixture of CFSE labeled B6.H-2^g7 and CTV labeled NOD.H-2^b BMC were injected into pre-treated B6.H-2^g7 mice. Blood was collected at 1, 2, and 3 hours post cell administration and analyzed by flow cytometry. Splenocytes and BMC from one hind limb were collected from each mouse and analyzed at four hours post BMC injection.
To evaluate the effect of EndoS on inhibiting the antibody-mediated killing of donor BMC, DSA passive transfer experiments were performed. Of all DSA, anti-donor MHC or HLA antibodies are of most importance in the clinic. Therefore, naïve NOD mice were injected with mouse IgG2b antibodies targeting MHC-I K^b expressing cells, treated with EndoS or left untreated, and thereafter subjected to bone marrow transfer from B6 mice.

[5] = test system: anti-MHC-I H-2K^b mAb (mouse IgG2b) mediated killing of donor BMC; test: In vivo EndoS mediated monoclonal DSA inhibition assay (complement sufficient B6.H-2^g7 recipients); parameters: species or system B6.H-2^g7 mice; conditions: compared to NOD hosts
Method: as §3
NOD or B6.H-2^g7 mice were i.v. injected with vehicle, anti-MHC-I H-2K^b (10 µg) alone, or a mixture of EndoS (30 µg) and anti-MHC-I H-2K^b (10 µg or 100 µg) as a pretreatment. […] Blood was collected at 1, 2, and 3 hours post cell administration and analyzed by flow cytometry. Splenocytes and BMC from one hind limb were collected from each mouse and analyzed at four hours post BMC injection. […]

Molecule: Imlifidase (IdeS, Immunoglobulin G-degrading enzyme of S. pyogenes)
- cleavage of rATG in sera of imlifidase-treated subjects (SDS-PAGE and Western blot), 96 hours post-imlifidase [1]: 8

B1: imlifidase: IdeS (Immunoglobulin G-degrading enzyme of S.pyogenes), IgG cysteine protease; mature sequence SEQ ID NO: 2 (protein)
chain: DSFSANQEIRYSEVTPYHVTSVWTKGVTPPANFTQGEDVFHAPYVANQGWYDITKTFNGKDDLLCGAATAGNMLHWWFDQNKDQIKRYLEEHPEKQKINFNGEQMFDVKEAIDTKNHQLDSKLFEYFKEKAFPYLSTKHLGVFPDHVIDMFINGYRLSLTNHGPTPVKEGSKDPRGGIFDAVFTRGDQSKLLTSRHDFKEKNLKEISDLIKKELTEGKALGLSHTYANVRINHVINLWGADFDSNGNLKAIYVTDSDSNASIGMKKYFVGVNSAGKVAISAKEIKEDNIGAQVLGLFTLSTGQDSWNQTN
modifications: Streptococcus pyogenes
- B6.CD45.2 donor cells in BM [2]: 0.15%
- B6.CD45.2 donor cells in spleen [2]: 0.46%
- imlifidase serum concentration, individual variation [3]: <0.1 to 1.8 µg/mL
- imlifidase serum concentration, mean [3]: 0.5 µg/mL
- subjects in which complete cleavage of rATG was avoided (rATG): 8 of 11
- cleavage of the entire plasma IgG-pool (plasma IgG-pool; after dosing with IdeS): within minutes
- time IgG levels in blood remain low (plasma IgG-pool; until newly synthesized IgG appeared): more than a week

B2: EndoS: Endoglycosidase of S. pyogenes, IgG endoglycosidase; mature sequence SEQ ID NO: 90 (protein)
chain: EEKTVQVQKGLPSIDSLHYLSENSKKEFKEELSKAGQESQKVKEILAKAQQADKQAQELAKMKIPEKIPMKPLHGPLYGGYFRTWHDKTSDPTEKDKVNSMGELPKEVDLAFIFHDWTKDYSLFWKELATKHVPKLNKQGTRVIRTIPWRFLAGGDNSGIAEDTSKYPNTPEGNKALAKAIVDEYVYKYNLDGLDVDVEHDSIPKVDKKEDTAGVERSIQVFEEIGKLIGPKGVDKSRLFIMDSTYMADKNPLIERGAPYINLLLVQVYGSQGEKGGWEPVSNRPEKTMEERWQGYSKYIRPEQYMIGFSFYEENAQEGNLWYDINSRKDEDKANGINTDITGTRAERYARWQPKTGGVKGGIFSYAIDRDGVAHQPKKYAKQKEFKDATDNIFHSDYSVSKALKTVMLKDKSYDLIDEKDFPDKALREAVMAQVGTRKGDLERFNGTLRLDNPAIQSLEGLNKFKKLAQLDLIGLSRITKLDRSVLPANMKPGKDTLETVLETYKKDNKEEPATIPPVSLKVSGLTGLKELDLSGFDRETLAGLDAATLTSLEKVDISGNKLDLAPGTENRQIFDTMLSTISNHVGSNEQTVKFDKQKPTGHYPDTYGKTSLRLPVANEKVDLQSQLLFGTVTNQGTLINSEADYKAYQNHKIAGRSFVDSNYHYNNFKVSYENYTVKVTDSTLGTTTDKTLATDKEETYKVDFFSPADKTKAVHTAKVIVGDEKTMMVNLAEGATVIGGSADPVNARKVFDGQLGSETDNISLGWDSKQSIIFKLKEDGLIKHWRFFNDSARNPETTNKPIQEASLQIFNIKDYNLDNLLENPNKFDDEKYWITVDTYSAQGERATAFSNTLNNITSKYWRVVFDTKGDRYSSPVVPELQILGYPLPNADTIMKTVTTAKELSQQKDKFSQKMLDELKIKEMALETSLNSKIFDVTAINANAGVLKDCIEKRQLLKK
modifications: Streptococcus pyogenes
- ratio of B6 to NOD cells in blood ([4]; 30 µg EndoS i.v. with 10 µg anti-K^b mAb vs mAb alone, one hour post-BMT, stable at two and three hours): significantly increased
- ratio of B6 to NOD cells in BM and spleen ([4]; EndoS with 10 µg anti-K^b mAb vs mAb only, four hours post-BMT): significant increase
- ratio of B6 to NOD cells in blood ([4]; EndoS with 100 µg anti-K^b mAb vs mAb alone, one and two hours post-BMT): increased ratio
- ratio of B6 to NOD cells in blood ([4]; EndoS with 100 µg anti-K^b mAb, three hours post-BMT): did not last
- ratios of donor to recipient cells [5]: improved
